Results as given in publication PMC11160874 (2024).

How the values were obtained:
[1] = target: T1, microtubule (alpha/beta-tubulin, taxol-stabilized) (Sus scrofa, UniProt P02550); experiment: TIRF microscopy, 150 mM salt
T1 chain 1: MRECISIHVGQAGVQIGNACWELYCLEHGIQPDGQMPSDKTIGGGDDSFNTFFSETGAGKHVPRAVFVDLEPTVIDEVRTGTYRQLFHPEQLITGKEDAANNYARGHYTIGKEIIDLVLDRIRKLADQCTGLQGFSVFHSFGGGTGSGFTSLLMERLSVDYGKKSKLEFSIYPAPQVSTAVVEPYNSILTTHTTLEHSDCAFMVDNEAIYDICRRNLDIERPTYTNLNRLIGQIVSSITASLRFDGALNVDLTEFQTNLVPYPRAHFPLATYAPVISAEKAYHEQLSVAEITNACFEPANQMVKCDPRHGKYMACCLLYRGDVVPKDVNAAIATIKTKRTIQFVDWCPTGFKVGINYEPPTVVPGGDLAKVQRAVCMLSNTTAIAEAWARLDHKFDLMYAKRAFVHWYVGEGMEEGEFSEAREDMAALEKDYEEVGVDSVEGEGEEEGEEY
T1 chain 2: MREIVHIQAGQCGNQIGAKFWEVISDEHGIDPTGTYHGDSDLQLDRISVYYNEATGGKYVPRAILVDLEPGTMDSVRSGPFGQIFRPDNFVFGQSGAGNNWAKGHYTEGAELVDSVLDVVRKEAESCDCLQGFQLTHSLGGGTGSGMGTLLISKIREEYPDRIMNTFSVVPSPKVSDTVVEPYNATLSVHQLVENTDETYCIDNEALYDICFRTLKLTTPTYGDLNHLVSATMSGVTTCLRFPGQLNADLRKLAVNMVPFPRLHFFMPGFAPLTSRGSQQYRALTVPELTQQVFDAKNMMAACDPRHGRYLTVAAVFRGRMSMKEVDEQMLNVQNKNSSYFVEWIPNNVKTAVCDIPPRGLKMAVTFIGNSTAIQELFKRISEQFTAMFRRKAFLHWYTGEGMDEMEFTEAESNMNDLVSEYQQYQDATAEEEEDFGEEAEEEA

[2] = target: T1, microtubule (alpha/beta-tubulin, …); experiment: TIRF microscopy, no added salt

B1: HURP 1-285 (protein)
chain: MSSSHFASRHRKDISTEMIRTKIAHRKSLSQKENRHKEYERNRHFGLKDVNIPTLEGRILVELDETSQGLVPEKTNVKPRAMKTILGDQRKQMLQKYKEEKQLQKLKEQREKAKRGIFKVGRYRPDMPCFLLSNQNAVKAEPKKAIPSSVRITRSKAKDQMEQTKIDNESDVRAIRPGPRQTSEKKVSDKEKKVVQPVMPTSLRMTRSATQAAKQVPRTVSSTTARKPVTRAANENEPEGKVPSKGRPAKNVETKPDKGISCKVDSEENTLNSQTNATSGMNPDG
modifications: C-terminal eGFP, taxol-stabilized microtubules
Kd [1]: ~600 nM
Kd [2]: ~33 nM
